# Patent EP4541814A1 (Cytiva BioProcess R&D AB, dated 2025)
# Where two headings read alike, the source gives them in different places.
# B1: vh257 (SEQ ID NO:101) (VHH)
# VHH: QVQLQQSGGGSVQAGGSLRLSCTISGRTLSDYTMGWFRQTPGKEREFVAAISWSGAYTKYADSVKGRFTISRDNAKNTVYLQMNSLKPEDTAVYYCAAGPTGLLSKKATPADYDYWGQGTQVTVSS
# B2: Nb273 (SEQ ID NO:124) (VHH)
# VHH: QVQLQQSGGGSVQAGGSLRLSCTISGRTLSDYTMGWFRQRPGKEREFVAAISWSGAYTKYADSVKGRFTISRDNAKSTVYLQMNSLKPEDTAVYYCAAGPTGLLSKKATPADYDYWGQGTQVTVSS
# B3: vh270 (SEQ ID NO:121) (VHH)
# VHH: QVQLQQSGGGSVQAGGSLRLSCTISGRTLSDYTMGWFRQRPGKEREFVAAISWSGAYTKYSDSVKGRFTISRDNAKNTVYLQMNSLKPEDTAVYYCAAGPTGLLSKKATPADYDYWGQGTQVTVSS
# B4: vh280 (SEQ ID NO:133) (VHH)
# VHH: QVQLQQSGGGSVQAGGSLRLSCTISGRTLSDYTMGWFRQRPGKEREFVAAISWSGAYTKYADSVKGRFTISRDNAKNTVYLQMNNLKPEDTAVYYCAAGPTGLLSKKATPADYDYWGQGTQVTVSS
# B5: vh275 (SEQ ID NO:126) (VHH)
# VHH: QVQLQQSGGGSVQAGGSLRLSCTISGRTLSDYTMGWFRQRPGKEREFVAAISWSGAYTKYADSVKGRFTISRDNAKQTVYLQMNSLKPEDTAVYYCAAGPTGLLSKKATPADYDYWGQGTQVTVSS
# B6: vh282 (SEQ ID NO:135) (VHH)
# VHH: QVQLQQSGGGSVQAGGSLRLSCTISGRTLSDYTMGWFRQRPGKEREFVAAISWSGAYTKYADSVKGRFTISRDNAKNTVYLQMNQLKPEDTAVYYCAAGPTGLLSKKATPADYDYWGQGTQVTVSS
# B7: vh281 (SEQ ID NO:134) (VHH)
# VHH: QVQLQQSGGGSVQAGGSLRLSCTISGRTLSDYTMGWFRQRPGKEREFVAAISWSGAYTKYADSVKGRFTISRDNAKNTVYLQMNTLKPEDTAVYYCAAGPTGLLSKKATPADYDYWGQGTQVTVSS
# B8: vh269 (SEQ ID NO:120) (VHH)
# VHH: QVQLQQSGGGSVQAGGSLRLSCTISGRTLSDYTMGWFRQRPGKEREFVAAISWSGAYTKYTDSVKGRFTISRDNAKNTVYLQMNSLKPEDTAVYYCAAGPTGLLSKKATPADYDYWGQGTQVTVSS
# B9: Nb276 (SEQ ID NO:128) (VHH)
# VHH: QVQLQQSGGGSVQAGGSLRLSCTISGRTLSDYTMGWFRQRPGKEREFVAAISWSGAYTKYADSVKGRFTISRDNAKNTVLLQMNSLKPEDTAVYYCAAGPTGLLSKKATPADYDYWGQGTQVTVSS
# B10: vh328 (SEQ ID NO:119) (VHH)
# VHH: QVQLQQSGGGSVQAGGSLRLSCTISGRTLSDYTMGWFRQRPGKEREFVAAISWSGAYTKYQDSVKGRFTISRDNAKNTVYLQMNSLKPEDTAVYYCAAGPTGLLSKKATPADYDYWGQGTQVTVSS
# B11: Nb277 (SEQ ID NO:129) (VHH)
# VHH: QVQLQQSGGGSVQAGGSLRLSCTISGRTLSDYTMGWFRQRPGKEREFVAAISWSGAYTKYADSVKGRFTISRDNAKNTVVLQMNSLKPEDTAVYYCAAGPTGLLSKKATPADYDYWGQGTQVTVSS
# B12: Nb329 (SEQ ID NO:127) (VHH)
# VHH: QVQLQQSGGGSVQAGGSLRLSCTISGRTLSDYTMGWFRQRPGKEREFVAAISWSGAYTKYADSVKGRFTISRDNAKDTVYLQMNSLKPEDTAVYYCAAGPTGLLSKKATPADYDYWGQGTQVTVSS
# B13: vh286 (SEQ ID NO:139) (VHH)
# VHH: QVQLQQSGGGSVQAGGSLRLSCTISGRTLSDYTMGWFRQRPGKEREFVAAISWSGAYTKYADSVKGRFTISRDNAKNTVYLQMNSLKPEDTAIYYCAAGPTGLLSKKATPADYDYWGQGTQVTVSS
# B14: vh331 (SEQ ID NO:140) (VHH)
# VHH: QVQLQQSGGGSVQAGGSLRLSCTISGRTLSDYTMGWFRQRPGKEREFVAAISWSGAYTKYADSVKGRFTISRDNAKNTVYLQMNSLKPEDTALYYCAAGPTGLLSKKATPADYDYWGQGTQVTVSS
# B15: vh279 (SEQ ID NO:131) (VHH)
# VHH: QVQLQQSGGGSVQAGGSLRLSCTISGRTLSDYTMGWFRQRPGKEREFVAAISWSGAYTKYADSVKGRFTISRDNAKNTVFLQMNSLKPEDTAVYYCAAGPTGLLSKKATPADYDYWGQGTQVTVSS
# B16: vh278 (SEQ ID NO:130) (VHH)
# VHH: QVQLQQSGGGSVQAGGSLRLSCTISGRTLSDYTMGWFRQRPGKEREFVAAISWSGAYTKYADSVKGRFTISRDNAKNTVALQMNSLKPEDTAVYYCAAGPTGLLSKKATPADYDYWGQGTQVTVSS
# B17: vh341 (SEQ ID NO:103) (VHH)
# VHH: QVQLQQSGGGSVQAGGSLRLSCTISGRTLSDYTMGWFRQKPGKEREFVAAISWSGAYTKYADSVKGRFTISRDNAKNTVYLQMNSLKPEDTAVYYCAAGPTGLLSKKATPADYDYWGQGTQVTVSS
# B18: Nb274 (SEQ ID NO:125) (VHH)
# VHH: QVQLQQSGGGSVQAGGSLRLSCTISGRTLSDYTMGWFRQRPGKEREFVAAISWSGAYTKYADSVKGRFTISRDNAKETVYLQMNSLKPEDTAVYYCAAGPTGLLSKKATPADYDYWGQGTQVTVSS
# B19: vh327 (SEQ ID NO:118) (VHH)
# VHH: QVQLQQSGGGSVQAGGSLRLSCTISGRTLSDYTMGWFRQRPGKEREFVAAISWSGAYTKYNDSVKGRFTISRDNAKNTVYLQMNSLKPEDTAVYYCAAGPTGLLSKKATPADYDYWGQGTQVTVSS
# B20: vh271 (SEQ ID NO:122) (VHH)
# VHH: QVQLQQSGGGSVQAGGSLRLSCTISGRTLSDYTMGWFRQRPGKEREFVAAISWSGAYTKYVDSVKGRFTISRDNAKNTVYLQMNSLKPEDTAVYYCAAGPTGLLSKKATPADYDYWGQGTQVTVSS
# B21: vh330 (SEQ ID NO:132) (VHH)
# VHH: QVQLQQSGGGSVQAGGSLRLSCTISGRTLSDYTMGWFRQRPGKEREFVAAISWSGAYTKYADSVKGRFTISRDNAKNTVWLQMNSLKPEDTAVYYCAAGPTGLLSKKATPADYDYWGQGTQVTVSS
# B22: vh258 (SEQ ID NO:102) (VHH)
# VHH: QVQLQQSGGGSVQAGGSLRLSCTISGRTLSDYTMGWFRQIPGKEREFVAAISWSGAYTKYADSVKGRFTISRDNAKNTVYLQMNSLKPEDTAVYYCAAGPTGLLSKKATPADYDYWGQGTQVTVSS
# B23: vh284 (SEQ ID NO:137) (VHH)
# VHH: QVQLQQSGGGSVQAGGSLRLSCTISGRTLSDYTMGWFRQRPGKEREFVAAISWSGAYTKYADSVKGRFTISRDNAKNTVYLQMNSLKPEDTAAYYCAAGPTGLLSKKATPADYDYWGQGTQVTVSS
# Key:
# AAV9 viral particles [1] = target: T1, AAV9 viral particles (adeno-associated virus 9); assay: SPR (Biacore), polypeptide amine-coupled to CM5, AAV9 analyte; response normalized to SEQ ID NO:80
# AAV9 viral particles [2] = target: T1, AAV9 viral particles; assay: as above; remark: listed apart in the source
Binder,Normalized AAV9 binding capacity (%) (AAV9 viral particles [1]),Normalized AAV9 binding capacity (%) (AAV9 viral particles [2])
B1,69,
B2,,82
B3,,103
B4,,100
B5,,94
B6,,88
B7,,103
B8,,85
B9,,92
B10,,110
B11,,80
B12,,111
B13,,112
B14,,109
B15,,98
B16,,99
B17,83,
B18,,91
B19,,109
B20,,105
B21,,112
B22,87,
B23,,109
